B1: Ab1H-P928/Ab1L (antibody, human IgG1, kappa, name in EU numbering)
heavy: QVQLVESGGGLVQPGGSLRLSCAASGFTLSNHDMTWVRQAPGKGLEYVSIINTYGNHWYANWASGRFTISRDNSKNTVYLQIDSLRAEDTATYYCARETHHGSSGIDHWGQGTLVTVSSASTKGPSVFPLAPSSKSTSGGTAALGCLVKDYFPEPVTVSWNSGALTSGVHTFPAVLQSSGLYSLSSVVTVPSSSLGTQTYICNVNHKPSNTKVDKKVEPKSCDKTHTCPPCPAPELLGGDSVFLFPPKPKDTLMISRTPEVTCVVVDVSHEDPEVKFNWYVDGVEVHNAKTKPRREQYNATYRVVSVLTVLHQDWLNGKEYKCKVSNKALPAPIEKTISKAKGQPREPQVYTLPPSREEMTKNQVSLTCLVKGFYPSDIAVEWESNGQPENNYKTTPPVLDSDGSFFLYSKLTVDKSRWQQGNVFSCSVMHEALHNHYTQKSLSLSP
light: DIQMTQSPSSVSASVGDRVTITCQASESIYSGLAWYQQKPGQPPKLLIYDHSTLASGVPSRFSGSGSGTEYALTISSLQPEDFATYYCQHADYAHHSDNVFGGGTKVEIKRTVAAPSVFIFPPSDEQLKSGTASVVCLLNNFYPREAKVQWKVDNALQSGNSQESVTEQDSKDSTYSLSSTLTLSKADYEKHKVYACEVTHQGLSSPVTKSFNRGEC
notes: copies: 2 + 2
B2: Ab1H-P934/Ab1L (antibody, human IgG1, kappa, name in EU numbering)
heavy: QVQLVESGGGLVQPGGSLRLSCAASGFTLSNHDMTWVRQAPGKGLEYVSIINTYGNHWYANWASGRFTISRDNSKNTVYLQIDSLRAEDTATYYCARETHHGSSGIDHWGQGTLVTVSSASTKGPSVFPLAPSSKSTSGGTAALGCLVKDYFPEPVTVSWNSGALTSGVHTFPAVLQSSGLYSLSSVVTVPSSSLGTQTYICNVNHKPSNTKVDKKVEPKSCDKTHTCPPCPAPELLGGDSVFLFPPKPKDTLMISRTPEVTCVVVDVSHEDPEVKFNWYVDGREVHNAKTKPREEQYNATYRVVSVLTVLHQDWLNGKEYKCKVSNKALPAPIEKTISKAKGQPREPQVYTLPPSREEMTKNQVSLTCLVKGFYPSDIAVEWESNGQPENNYKTTPPVLDSDGSFFLYSKLTVDKSRWQQGNVFSCSVMHEALHNHYTQKSLSLSP
light: DIQMTQSPSSVSASVGDRVTITCQASESIYSGLAWYQQKPGQPPKLLIYDHSTLASGVPSRFSGSGSGTEYALTISSLQPEDFATYYCQHADYAHHSDNVFGGGTKVEIKRTVAAPSVFIFPPSDEQLKSGTASVVCLLNNFYPREAKVQWKVDNALQSGNSQESVTEQDSKDSTYSLSSTLTLSKADYEKHKVYACEVTHQGLSSPVTKSFNRGEC
notes: copies: 2 + 2
B3: Ab1H-P937/Ab1L (antibody, human IgG1, kappa, name in EU numbering)
heavy: QVQLVESGGGLVQPGGSLRLSCAASGFTLSNHDMTWVRQAPGKGLEYVSIINTYGNHWYANWASGRFTISRDNSKNTVYLQIDSLRAEDTATYYCARETHHGSSGIDHWGQGTLVTVSSASTKGPSVFPLAPSSKSTSGGTAALGCLVKDYFPEPVTVSWNSGALTSGVHTFPAVLQSSGLYSLSSVVTVPSSSLGTQTYICNVNHKPSNTKVDKKVEPKSCDKTHTCPPCPAPELLGGDSVFLFPPKPKDTLMISRTPEVTCVVVDVSHEDPRVKFNWYVDGVEVHNAKTKPREEQYNATYRVVSVLTVLHQDWLNGKEYKCKVSNKALPAPIEKTISKAKGQPREPQVYTLPPSREEMTKNQVSLTCLVKGFYPSDIAVEWESNGQPENNYKTTPPVLDSDGSFFLYSKLTVDKSRWQQGNVFSCSVMHEALHNHYTQKSLSLSP
light: DIQMTQSPSSVSASVGDRVTITCQASESIYSGLAWYQQKPGQPPKLLIYDHSTLASGVPSRFSGSGSGTEYALTISSLQPEDFATYYCQHADYAHHSDNVFGGGTKVEIKRTVAAPSVFIFPPSDEQLKSGTASVVCLLNNFYPREAKVQWKVDNALQSGNSQESVTEQDSKDSTYSLSSTLTLSKADYEKHKVYACEVTHQGLSSPVTKSFNRGEC
notes: copies: 2 + 2
B4: Ab1H-P930/Ab1L (antibody, human IgG1, kappa, name in EU numbering)
heavy: QVQLVESGGGLVQPGGSLRLSCAASGFTLSNHDMTWVRQAPGKGLEYVSIINTYGNHWYANWASGRFTISRDNSKNTVYLQIDSLRAEDTATYYCARETHHGSSGIDHWGQGTLVTVSSASTKGPSVFPLAPSSKSTSGGTAALGCLVKDYFPEPVTVSWNSGALTSGVHTFPAVLQSSGLYSLSSVVTVPSSSLGTQTYICNVNHKPSNTKVDKKVEPKSCDKTHTCPPCPAPELLGGDSVFLFPPKPKDTLMISRTPEVTCVVVDVSHEDPEVKFNWYVDGVEVHNRKTKPREEQYNATYRVVSVLTVLHQDWLNGKEYKCKVSNKALPAPIEKTISKAKGQPREPQVYTLPPSREEMTKNQVSLTCLVKGFYPSDIAVEWESNGQPENNYKTTPPVLDSDGSFFLYSKLTVDKSRWQQGNVFSCSVMHEALHNHYTQKSLSLSP
light: DIQMTQSPSSVSASVGDRVTITCQASESIYSGLAWYQQKPGQPPKLLIYDHSTLASGVPSRFSGSGSGTEYALTISSLQPEDFATYYCQHADYAHHSDNVFGGGTKVEIKRTVAAPSVFIFPPSDEQLKSGTASVVCLLNNFYPREAKVQWKVDNALQSGNSQESVTEQDSKDSTYSLSSTLTLSKADYEKHKVYACEVTHQGLSSPVTKSFNRGEC
notes: copies: 2 + 2
B5: Ab1H-P935/Ab1L (antibody, human IgG1, kappa, name in EU numbering)
heavy: QVQLVESGGGLVQPGGSLRLSCAASGFTLSNHDMTWVRQAPGKGLEYVSIINTYGNHWYANWASGRFTISRDNSKNTVYLQIDSLRAEDTATYYCARETHHGSSGIDHWGQGTLVTVSSASTKGPSVFPLAPSSKSTSGGTAALGCLVKDYFPEPVTVSWNSGALTSGVHTFPAVLQSSGLYSLSSVVTVPSSSLGTQTYICNVNHKPSNTKVDKKVEPKSCDKTHTCPPCPAPELLGGDSVFLFPPKPKDTLMISRTPEVTCVVVDVSHEDPEVKFNWYVDRVEVHNAKTKPREEQYNATYRVVSVLTVLHQDWLNGKEYKCKVSNKALPAPIEKTISKAKGQPREPQVYTLPPSREEMTKNQVSLTCLVKGFYPSDIAVEWESNGQPENNYKTTPPVLDSDGSFFLYSKLTVDKSRWQQGNVFSCSVMHEALHNHYTQKSLSLSP
light: DIQMTQSPSSVSASVGDRVTITCQASESIYSGLAWYQQKPGQPPKLLIYDHSTLASGVPSRFSGSGSGTEYALTISSLQPEDFATYYCQHADYAHHSDNVFGGGTKVEIKRTVAAPSVFIFPPSDEQLKSGTASVVCLLNNFYPREAKVQWKVDNALQSGNSQESVTEQDSKDSTYSLSSTLTLSKADYEKHKVYACEVTHQGLSSPVTKSFNRGEC
notes: copies: 2 + 2
B6: Ab1H-P932/Ab1L (antibody, human IgG1, kappa, name in EU numbering)
heavy: QVQLVESGGGLVQPGGSLRLSCAASGFTLSNHDMTWVRQAPGKGLEYVSIINTYGNHWYANWASGRFTISRDNSKNTVYLQIDSLRAEDTATYYCARETHHGSSGIDHWGQGTLVTVSSASTKGPSVFPLAPSSKSTSGGTAALGCLVKDYFPEPVTVSWNSGALTSGVHTFPAVLQSSGLYSLSSVVTVPSSSLGTQTYICNVNHKPSNTKVDKKVEPKSCDKTHTCPPCPAPELLGGDSVFLFPPKPKDTLMISRTPEVTCVVVDVSHEDPEVKFNWYVDGVEVRNAKTKPREEQYNATYRVVSVLTVLHQDWLNGKEYKCKVSNKALPAPIEKTISKAKGQPREPQVYTLPPSREEMTKNQVSLTCLVKGFYPSDIAVEWESNGQPENNYKTTPPVLDSDGSFFLYSKLTVDKSRWQQGNVFSCSVMHEALHNHYTQKSLSLSP
light: DIQMTQSPSSVSASVGDRVTITCQASESIYSGLAWYQQKPGQPPKLLIYDHSTLASGVPSRFSGSGSGTEYALTISSLQPEDFATYYCQHADYAHHSDNVFGGGTKVEIKRTVAAPSVFIFPPSDEQLKSGTASVVCLLNNFYPREAKVQWKVDNALQSGNSQESVTEQDSKDSTYSLSSTLTLSKADYEKHKVYACEVTHQGLSSPVTKSFNRGEC
notes: copies: 2 + 2
B7: Ab1H-P929/Ab1L (antibody, human IgG1, kappa, name in EU numbering)
heavy: QVQLVESGGGLVQPGGSLRLSCAASGFTLSNHDMTWVRQAPGKGLEYVSIINTYGNHWYANWASGRFTISRDNSKNTVYLQIDSLRAEDTATYYCARETHHGSSGIDHWGQGTLVTVSSASTKGPSVFPLAPSSKSTSGGTAALGCLVKDYFPEPVTVSWNSGALTSGVHTFPAVLQSSGLYSLSSVVTVPSSSLGTQTYICNVNHKPSNTKVDKKVEPKSCDKTHTCPPCPAPELLGGDSVFLFPPKPKDTLMISRTPEVTCVVVDVSHEDPEVKFNWYVDGVEVHNAKTKRREEQYNATYRVVSVLTVLHQDWLNGKEYKCKVSNKALPAPIEKTISKAKGQPREPQVYTLPPSREEMTKNQVSLTCLVKGFYPSDIAVEWESNGQPENNYKTTPPVLDSDGSFFLYSKLTVDKSRWQQGNVFSCSVMHEALHNHYTQKSLSLSP
light: DIQMTQSPSSVSASVGDRVTITCQASESIYSGLAWYQQKPGQPPKLLIYDHSTLASGVPSRFSGSGSGTEYALTISSLQPEDFATYYCQHADYAHHSDNVFGGGTKVEIKRTVAAPSVFIFPPSDEQLKSGTASVVCLLNNFYPREAKVQWKVDNALQSGNSQESVTEQDSKDSTYSLSSTLTLSKADYEKHKVYACEVTHQGLSSPVTKSFNRGEC
notes: copies: 2 + 2
B8: Ab1H-P931/Ab1L (antibody, human IgG1, kappa, name in EU numbering)
heavy: QVQLVESGGGLVQPGGSLRLSCAASGFTLSNHDMTWVRQAPGKGLEYVSIINTYGNHWYANWASGRFTISRDNSKNTVYLQIDSLRAEDTATYYCARETHHGSSGIDHWGQGTLVTVSSASTKGPSVFPLAPSSKSTSGGTAALGCLVKDYFPEPVTVSWNSGALTSGVHTFPAVLQSSGLYSLSSVVTVPSSSLGTQTYICNVNHKPSNTKVDKKVEPKSCDKTHTCPPCPAPELLGGDSVFLFPPKPKDTLMISRTPEVTCVVVDVSHEDPEVKFNWYVDGVEVHRAKTKPREEQYNATYRVVSVLTVLHQDWLNGKEYKCKVSNKALPAPIEKTISKAKGQPREPQVYTLPPSREEMTKNQVSLTCLVKGFYPSDIAVEWESNGQPENNYKTTPPVLDSDGSFFLYSKLTVDKSRWQQGNVFSCSVMHEALHNHYTQKSLSLSP
light: DIQMTQSPSSVSASVGDRVTITCQASESIYSGLAWYQQKPGQPPKLLIYDHSTLASGVPSRFSGSGSGTEYALTISSLQPEDFATYYCQHADYAHHSDNVFGGGTKVEIKRTVAAPSVFIFPPSDEQLKSGTASVVCLLNNFYPREAKVQWKVDNALQSGNSQESVTEQDSKDSTYSLSSTLTLSKADYEKHKVYACEVTHQGLSSPVTKSFNRGEC
notes: copies: 2 + 2

biological target: T1, soluble human FcγRIIb (human, UniProt P31994 43-217, limits assumed); test: SPR, Ab-IgE complex over captured hFcγRIIb, pH 7.4, 25C
T1 construct: soluble His-tagged form; also called hFcγRIIb
T1 sequence (looked up): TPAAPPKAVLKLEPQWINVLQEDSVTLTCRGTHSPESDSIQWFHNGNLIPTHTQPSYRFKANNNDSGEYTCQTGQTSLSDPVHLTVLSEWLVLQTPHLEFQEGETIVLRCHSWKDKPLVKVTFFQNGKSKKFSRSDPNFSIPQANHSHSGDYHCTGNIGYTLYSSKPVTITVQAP

**Q.** How did the “relative binding (RU), P600=1.00” value turn out when B1 was run?
**A.** 0.2 fold

**Q.** Which “relative binding (RU), P600=1.00” value does the source give for B2 here?
**A.** 1.54 fold

**Q.** B3 was tested. Which “relative binding (RU), P600=1.00” value did it give?
**A.** 0.21 fold

**Q.** With B4 as the binder, how does the “relative binding (RU), P600=1.00” value read?
**A.** -0.07 fold

**Q.** B5 was tested. Which “relative binding (RU), P600=1.00” value did it give?
**A.** -0.06 fold

**Q.** For B6, which “relative binding (RU), P600=1.00” value is on record?
**A.** 1.38 fold

**Q.** Which “relative binding (RU), P600=1.00” value does the source give for B7 here?
**A.** 0.47 fold

**Q.** For B8, which “relative binding (RU), P600=1.00” value is on record?
**A.** 0.68 fold

From patent US20180258163A1 (Chugai, published 2018)
